Each block holds one substance with its values, some of them ahead of it.
What was measured:
[1] = molecular target: human IgG1 antibody (Lambda from human myeloma plasma, Sigma-Aldrich) (human); assay: SPR (Biacore 3000), IgG1 immobilized at 458 RU, receptor as analyte, 1:1 model
[2] = molecular target: IgG of IgG Sepharose 6 Fast Flow resin (GE Healthcare); assay: batch binding of 293F conditioned media to IgG Sepharose, Western blot quantitation, n=2
[3] = molecular target: human IgG1 antibody (Lambda from human myeloma plasma, Sigma-Aldrich) (human); assay: SPR (Biacore), IgG1 immobilized at 485 RU, receptor as analyte
[4] = molecular target: human IgG1 antibody (Lambda from human myeloma plasma, Sigma-Aldrich) (human); assay: SPR (Biacore 3000), steady state, IgG1 immobilized at 1013 RU, receptor as analyte
[5] = molecular target: IgG of IgG Sepharose 6 Fast Flow resin (GE Healthcare); assay: IgG-Sepharose column, purified protein, Western blot
[6] = molecular target: IgG of IgG Sepharose 6 Fast Flow resin (GE Healthcare); assay: IgG-Sepharose column, one-day conditioned media of CHO cells at 37° C., Western blot
[7] = molecular target: IgG of IgG Sepharose 6 Fast Flow resin (GE Healthcare); assay: IgG-Sepharose column, 24 h CHO conditioned media, Western blot

FcγRIA-CH6 (extracellular domain of human FcγRIA with a C-terminal six His tag), sequence (P12314 other isoform, or with tags, fused parts or gaps): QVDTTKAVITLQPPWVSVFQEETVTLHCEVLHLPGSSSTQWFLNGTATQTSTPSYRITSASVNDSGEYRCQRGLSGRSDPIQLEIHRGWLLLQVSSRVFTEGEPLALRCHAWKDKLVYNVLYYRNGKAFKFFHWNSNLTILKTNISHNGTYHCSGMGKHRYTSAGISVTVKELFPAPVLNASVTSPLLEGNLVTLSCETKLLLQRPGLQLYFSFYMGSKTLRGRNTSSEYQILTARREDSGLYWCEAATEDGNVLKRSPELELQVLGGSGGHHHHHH
untagged recombinant soluble human FcγRIA, sequence (P12314 16-282): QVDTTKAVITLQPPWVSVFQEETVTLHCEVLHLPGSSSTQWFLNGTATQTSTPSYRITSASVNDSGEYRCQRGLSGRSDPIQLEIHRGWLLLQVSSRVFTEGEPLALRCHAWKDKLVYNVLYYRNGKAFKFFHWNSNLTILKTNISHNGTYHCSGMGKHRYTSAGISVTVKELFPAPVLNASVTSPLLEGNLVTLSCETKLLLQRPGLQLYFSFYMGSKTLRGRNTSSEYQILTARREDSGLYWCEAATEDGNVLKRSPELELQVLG
aggregated FcγRIA (purified soluble FcγRIA incubated at 37° C.), sequence (P12314 16-282): as above
FcγRIIIA-CH6 (soluble monomeric human FcγRIIIA extracellular domain with C-terminal His6 tag), sequence (P08637 other isoform, or with tags, fused parts or gaps): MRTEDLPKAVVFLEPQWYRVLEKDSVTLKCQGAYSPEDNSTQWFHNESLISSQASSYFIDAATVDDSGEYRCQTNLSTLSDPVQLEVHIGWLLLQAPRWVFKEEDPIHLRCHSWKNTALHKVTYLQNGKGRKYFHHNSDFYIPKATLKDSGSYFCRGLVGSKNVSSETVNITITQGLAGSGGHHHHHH

Kd [1]: 0.17 nM | koff [1]: 0.00046 s⁻¹ | kon [1]: 2.8e+06 M⁻¹ s⁻¹ | percent of total expressed in IgG Sepharose flow-through (aggregate amount) [2]: 66% | percent of total expressed recovered from IgG resin [2]: 21% | Kd [3]: 0.17 nM | koff [3]: 0.00046 s⁻¹ | kon [3]: 2.8e+06 M⁻¹ s⁻¹
Substance: FcγRIA-CH6 (extracellular domain of human FcγRIA with a C-terminal six His tag) (from UniProt P12314 16-282) (receptor)

Kd [4]: 1900 nM
Substance: FcγRIIA-CH6 (soluble monomeric human FcγRIIA extracellular domain with C-terminal His6 tag) (from UniProt P12318 34-212) (receptor)

Kd [4]: 630 nM
Substance: FcγRIIIA-CH6 (soluble monomeric human FcγRIIIA extracellular domain with C-terminal His6 tag) (from UniProt P08637 18-195) (receptor)

percent of total in bound fraction [5]: 4% | percent of total in unbound wash fraction [5]: 96%
Substance: aggregated FcγRIA (purified soluble FcγRIA incubated at 37° C.) (from UniProt P12314 16-282) (receptor)

percent of recovered protein bound and eluted [6]: 20% | percent of recovered protein in unbound fraction [6]: 80% | Kd [3]: 0.17 nM | koff [3]: 0.00046 s⁻¹ | kon [3]: 2.8e+06 M⁻¹ s⁻¹ | percent of total applied bound to IgG-Sepharose [7]: 14% | percent of total applied in the wash (unbound) [7]: 86%
Substance: untagged recombinant soluble human FcγRIA (from UniProt P12314 16-282) (receptor)
